Experimental data taken from paper PMC10338859.

How the values were obtained:
[1] = tested on: GR20, poly(GR) dipeptide repeat peptide; experiment: BLI; conditions: apparent Kd, 1:1 equilibrium fit; BLI: 10 mM Tris-HCl, 1 mM disodium EDTA, pH 8.0, 150 mM NaCl, 0.1 mg/ml BSA, 0.01% Tween-20, 25 C; RNA on streptavidin …
[2] = tested on: PR20, poly(PR) dipeptide repeat peptide; experiment: BLI; conditions: apparent Kd, 1:1 equilibrium fit; BLI: 10 mM Tris-HCl, 1 mM disodium EDTA, pH 8.0, 150 mM NaCl, 0.1 mg/ml BSA, 0.01% Tween-20, 25 C; RNA on streptavidin …

“AUAAUAUAAUAUAAUAUAAUAUAAU [poly(AUAAU) RNA]” was tested. Which Kd [1] did it give?
The Kd was 6.1 nM.

What about the Kd [2] of the same sequence?
Its Kd is 11.1 nM.

For “GAGAAGAGAAGAGAAGAGAAGAGAA [poly(GAAGA) RNA]”, which Kd [1] is on record?
The Kd was 3.6 nM.

And the Kd [2]?
Its Kd is 2.6 nM.
